Experimental data from patent US20040087777A1.

What was measured:
Experiment in all cases: rNET
… analog, Residue 5 = E = target: … analog, Residue 5 = E
… analog, Residue 5 = C = target: … analog, Residue 5 = C
… analog, Residue 5 = S = target: … analog, Residue 5 = S
… analog, Residue 4 = C = target: … analog, Residue 4 = C
… analog, Residue 6 = L = target: … analog, Residue 6 = L
… analog, Residue 4 = D = target: … analog, Residue 4 = D
… analog, Residue 5 = T = target: … analog, Residue 5 = T
… analog, Residue 4 = V = target: … analog, Residue 4 = V
… analog, Residue 7 = Q = target: … analog, Residue 7 = Q
… analog, Residue 6 = R = target: … analog, Residue 6 = R
… analog, Residue 4 = G = target: … analog, Residue 4 = G
… analog, Residue 4 = K = target: … analog, Residue 4 = K
… analog, Residue 7 = R = target: … analog, Residue 7 = R
… analog, Residue 4 = L = target: … analog, Residue 4 = L
… analog, Residue 6 = V = target: … analog, Residue 6 = V
… analog, Residue 4 = I = target: … analog, Residue 4 = I
… analog, Residue 6 = Q = target: … analog, Residue 6 = Q
… analog, Residue 7 = T = target: … analog, Residue 7 = T
… analog, Residue 4 = W = target: … analog, Residue 4 = W
… analog, Residue 7 = G = target: … analog, Residue 7 = G
… analog, Residue 7 = C = target: … analog, Residue 7 = C
… analog, Residue 7 = M = target: … analog, Residue 7 = M
… analog, Residue 6 = I = target: … analog, Residue 6 = I
… analog, Residue 5 = A = target: … analog, Residue 5 = A
… analog, Residue 7 = I = target: … analog, Residue 7 = I
… analog, Residue 6 = G = target: … analog, Residue 6 = G
… analog, Residue 4 = T = target: … analog, Residue 4 = T
… analog, Residue 5 = F = target: … analog, Residue 5 = F
… analog, Residue 5 = M = target: … analog, Residue 5 = M
… analog, Residue 5 = I = target: … analog, Residue 5 = I
… analog, Residue 6 = E = target: … analog, Residue 6 = E
… analog, Residue 5 = L = target: … analog, Residue 5 = L
… analog, Residue 4 = Y = target: … analog, Residue 4 = Y
… analog, Residue 7 = A = target: … analog, Residue 7 = A
… analog, Residue 4 = P = target: … analog, Residue 4 = P
… analog, Residue 6 = C = target: … analog, Residue 6 = C
… analog, Residue 7 = V = target: … analog, Residue 7 = V
… analog, Residue 7 = W = target: … analog, Residue 7 = W
… analog, Residue 5 = Y = target: … analog, Residue 5 = Y
… analog, Residue 6 = N = target: … analog, Residue 6 = N
… analog, Residue 4 = M = target: … analog, Residue 4 = M
… analog, Residue 4 = Q = target: … analog, Residue 4 = Q
… analog, Residue 5 = D = target: … analog, Residue 5 = D
… analog, Residue 6 = Y = target: … analog, Residue 6 = Y
… analog, Residue 6 = A = target: … analog, Residue 6 = A
… analog, Residue 6 = M = target: … analog, Residue 6 = M
… analog, Residue 7 = Y = target: … analog, Residue 7 = Y
… analog, Residue 7 = K = target: … analog, Residue 7 = K
… analog, Residue 7 = F = target: … analog, Residue 7 = F
… analog, Residue 6 = K = target: … analog, Residue 6 = K
… analog, Residue 6 = D = target: … analog, Residue 6 = D
… analog, Residue 5 = N = target: … analog, Residue 5 = N
… analog, Residue 7 = P = target: … analog, Residue 7 = P
… analog, Residue 4 = A = target: … analog, Residue 4 = A
… analog, Residue 6 = F = target: … analog, Residue 6 = F
… analog, Residue 6 = P = target: … analog, Residue 6 = P
… analog, Residue 5 = P = target: … analog, Residue 5 = P
… analog, Residue 4 = R = target: … analog, Residue 4 = R
… analog, Residue 4 = S = target: … analog, Residue 4 = S
… analog, Residue 7 = S = target: … analog, Residue 7 = S
… analog, Residue 5 = Q = target: … analog, Residue 5 = Q
… analog, Residue 7 = L = target: … analog, Residue 7 = L
… analog, Residue 6 = W = target: … analog, Residue 6 = W
… analog, Residue 5 = V = target: … analog, Residue 5 = V
… analog, Residue 5 = W = target: … analog, Residue 5 = W
… analog, Residue 4 = N = target: … analog, Residue 4 = N
… analog, Residue 4 = E = target: … analog, Residue 4 = E

B1: murine monoclonal antibody 3D6 (antibody, mouse IgG2b, V domains shown)
VL: not shown
VH: EVKLVESGGGLVKPGASLKLSCAASGFTFSNYGMSWVRQNSDKRLEWVASIRSGGGRTYYSDNVKGRFTISRENAKNTLYLQMSSLKSEDTALYYCVRYDHYSGSSDYWGQGTTVTVSS
Question: With B1 as the binder, how does the OD (… analog, Residue 5 = E) read?
Answer: The OD was 0.115 OD.

Question: What about the OD (… analog, Residue 5 = C) of the same binder?
Answer: The OD was 0.359 OD.

Question: And the OD (… analog, Residue 5 = S)?
Answer: Its OD is 0.487 OD.

Question: What about the OD (… analog, Residue 4 = C) of the same binder?
Answer: Its OD is 0.02 OD.

Question: What about the OD (… analog, Residue 6 = L) of the same binder?
Answer: Its OD is 0.584 OD.

Question: What about the OD (… analog, Residue 4 = D) of the same binder?
Answer: Its OD is 0.017 OD.

Question: And the OD (… analog, Residue 5 = T)?
Answer: The OD was 0.53 OD.

Question: And the OD (… analog, Residue 4 = V)?
Answer: Its OD is 0.213 OD.

Question: What about the OD (… analog, Residue 7 = Q) of the same binder?
Answer: Its OD is 0.563 OD.

Question: What about the OD (… analog, Residue 6 = R) of the same binder?
Answer: The OD was 0.576 OD.

Question: What about the OD (… analog, Residue 4 = G) of the same binder?
Answer: The OD was 0.016 OD.

Question: What about the OD (… analog, Residue 4 = K) of the same binder?
Answer: The OD was 0.015 OD.

Question: What about the OD (… analog, Residue 7 = R) of the same binder?
Answer: The OD was 0.551 OD.

Question: What about the OD (… analog, Residue 4 = L) of the same binder?
Answer: The OD was 0.559 OD.

Question: What about the OD (… analog, Residue 6 = V) of the same binder?
Answer: Its OD is 0.588 OD.

Question: What about the OD (… analog, Residue 4 = I) of the same binder?
Answer: Its OD is 0.119 OD.

Question: And the OD (… analog, Residue 6 = Q)?
Answer: The OD was 0.57 OD.

Question: What about the OD (… analog, Residue 7 = T) of the same binder?
Answer: Its OD is 0.56 OD.

Question: What about the OD (… analog, Residue 4 = W) of the same binder?
Answer: Its OD is 0.291 OD.

Question: And the OD (… analog, Residue 7 = G)?
Answer: The OD was 0.562 OD.

Question: What about the OD (… analog, Residue 7 = C) of the same binder?
Answer: Its OD is 0.559 OD.

Question: What about the OD (… analog, Residue 7 = M) of the same binder?
Answer: The OD was 0.562 OD.

Question: What about the OD (… analog, Residue 6 = I) of the same binder?
Answer: Its OD is 0.602 OD.

Question: And the OD (… analog, Residue 5 = A)?
Answer: Its OD is 0.275 OD.

Question: What about the OD (… analog, Residue 7 = I) of the same binder?
Answer: The OD was 0.552 OD.

Question: And the OD (… analog, Residue 6 = G)?
Answer: Its OD is 0.592 OD.

Question: And the OD (… analog, Residue 4 = T)?
Answer: Its OD is 0.016 OD.

Question: What about the OD (… analog, Residue 5 = F) of the same binder?
Answer: Its OD is 0.439 OD.

Question: What about the OD (… analog, Residue 5 = M) of the same binder?
Answer: The OD was 0.418 OD.

Question: What about the OD (… analog, Residue 5 = I) of the same binder?
Answer: Its OD is 0.51 OD.

Question: What about the OD (… analog, Residue 6 = E) of the same binder?
Answer: The OD was 0.579 OD.

Question: What about the OD (… analog, Residue 5 = L) of the same binder?
Answer: Its OD is 0.517 OD.

Question: What about the OD (… analog, Residue 4 = Y) of the same binder?
Answer: The OD was 0.529 OD.

Question: What about the OD (… analog, Residue 7 = A) of the same binder?
Answer: Its OD is 0.58 OD.

Question: What about the OD (… analog, Residue 4 = P) of the same binder?
Answer: Its OD is 0.03 OD.

Question: What about the OD (… analog, Residue 6 = C) of the same binder?
Answer: The OD was 0.585 OD.

Question: And the OD (… analog, Residue 7 = V)?
Answer: Its OD is 0.563 OD.

Question: And the OD (… analog, Residue 7 = W)?
Answer: The OD was 0.547 OD.

Question: What about the OD (… analog, Residue 5 = Y) of the same binder?
Answer: The OD was 0.278 OD.

Question: And the OD (… analog, Residue 6 = N)?
Answer: Its OD is 0.58 OD.

Question: And the OD (… analog, Residue 4 = M)?
Answer: Its OD is 0.549 OD.

Question: What about the OD (… analog, Residue 4 = Q) of the same binder?
Answer: The OD was 0.065 OD.

Question: And the OD (… analog, Residue 5 = D)?
Answer: The OD was 0.08 OD.

Question: And the OD (… analog, Residue 6 = Y)?
Answer: Its OD is 0.595 OD.

Question: And the OD (… analog, Residue 6 = A)?
Answer: The OD was 0.587 OD.

Question: What about the OD (… analog, Residue 6 = M) of the same binder?
Answer: The OD was 0.583 OD.

Question: What about the OD (… analog, Residue 7 = Y) of the same binder?
Answer: The OD was 0.56 OD.

Question: What about the OD (… analog, Residue 7 = K) of the same binder?
Answer: The OD was 0.565 OD.

Question: What about the OD (… analog, Residue 7 = F) of the same binder?
Answer: The OD was 0.546 OD.

Question: What about the OD (… analog, Residue 6 = K) of the same binder?
Answer: The OD was 0.585 OD.

Question: What about the OD (… analog, Residue 6 = D) of the same binder?
Answer: Its OD is 0.584 OD.

Question: What about the OD (… analog, Residue 5 = N) of the same binder?
Answer: Its OD is 0.476 OD.

Question: What about the OD (… analog, Residue 7 = P) of the same binder?
Answer: The OD was 0.582 OD.

Question: And the OD (… analog, Residue 4 = A)?
Answer: Its OD is 0.016 OD.

Question: And the OD (… analog, Residue 6 = F)?
Answer: Its OD is 0.586 OD.

Question: And the OD (… analog, Residue 6 = P)?
Answer: Its OD is 0.587 OD.

Question: What about the OD (… analog, Residue 5 = P) of the same binder?
Answer: The OD was 0.093 OD.

Question: What about the OD (… analog, Residue 4 = R) of the same binder?
Answer: Its OD is 0.016 OD.

Question: What about the OD (… analog, Residue 4 = S) of the same binder?
Answer: The OD was 0.026 OD.

Question: And the OD (… analog, Residue 7 = S)?
Answer: The OD was 0.563 OD.

Question: What about the OD (… analog, Residue 5 = Q) of the same binder?
Answer: Its OD is 0.388 OD.

Question: And the OD (… analog, Residue 7 = L)?
Answer: Its OD is 0.566 OD.

Question: And the OD (… analog, Residue 6 = W)?
Answer: The OD was 0.576 OD.

Question: And the OD (… analog, Residue 5 = V)?
Answer: The OD was 0.493 OD.

Question: And the OD (… analog, Residue 5 = W)?
Answer: The OD was 0.393 OD.

Question: What about the OD (… analog, Residue 4 = N) of the same binder?
Answer: The OD was 0.085 OD.

Question: And the OD (… analog, Residue 4 = E)?
Answer: The OD was 0.016 OD.
